Data taken from patent US20160031952A1.

Experiments:
Assay in all cases: cell-based or functional assay
[1] = target: β-amyloid peptide 1-42 (Aβ), fresh (0 h), monomeric (UniProt P05067)
[2] = target: β-amyloid peptide 1-42 (Aβ), pre-aggregated for 6 hrs, toxic oligomer-containing solution (UniProt P05067)
[3] = target: transthyretin (TTR), pre-incubated at pH 4.5 for 24 hrs, toxic oligomer-containing solution (UniProt P02766)

β-amyloid peptide 1-42 (Aβ), pre-aggregated for 6 hrs, toxic oligomer-containing solution, sequence (P05067 672-713 limits assumed): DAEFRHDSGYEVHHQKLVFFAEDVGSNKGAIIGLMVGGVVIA
β-amyloid peptide 1-42 (Aβ), fresh (0 h), monomeric, sequence (P05067 672-713 limits assumed): as above

Row | inhibition of Aβ fibrillization (ThT fluorescence; co-incubated 10:1) [1] | Substance | inhibition of Aβ fibril formation (ThT fluorescence, 22 hours, 37° C.; peptide co-incubated 10:1 from the start) [2] | inhibition of aggregation after addition to pre-aggregated (6 hrs), toxic Aβ (ThT) [2] | inhibition of the remaining TTR aggregation after addition to 24-hour pre-incubated, toxic TTR (Congo red) [3] | percentage inhibition of TTR aggregation (Congo red binding, 48 h, 37° C., pH 4.5; peptide co-incubated 20:1 from the start) [3]
1 | 62% | β (β-sheet control design: Trpzip 3 peptide with Trp to Leu substitutions) (designed binder) | – | – | – | –
2 | – | α1 (ldas90, peptide #1 of FIG. 5), Ac-RGEmNlSwMNEYSGWtMnLkMGR-NH2 (designed binder) | 87% | 97% | 81% | 72%
